Measurements: article PMC13354579 (EMBO Reports, 2026)

Biological target: T1, RAD23A^UBL (human, UniProt P54725 1-84)
T1 construct: RAD23A, human, N-terminal ubiquitin-like domain, residues 1-84; The limits 1-84 are stated for the crystallised construct; also called UBL domain of RAD23A; RAD23A (1–84); source: E. coli (Rosetta2(DE3) for crystallisation), purified via GST tag and SEC
T1 sequence (looked up): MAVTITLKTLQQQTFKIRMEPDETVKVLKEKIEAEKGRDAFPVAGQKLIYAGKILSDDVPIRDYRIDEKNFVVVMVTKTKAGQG
Assay: ITC; MicroCal PEAQ-ITC, 25 °C, 50 mM Tris-HCl pH 7.5, 150 mM NaCl, 250 µM TCEP; DUB in the syringe titrated into K48-linked polyUb in the cell, in other experiments the scarcest species in the cell; n = 2, mean ± SD
Conditions: both partners purified

B1: MINDY3^EF-hand (domain or fragment, human, UniProt Q9H8M7 297-370, looked up)
chain: ALVAPEAPSEQARRVFQTYDPEDNGFIPDSLLEDVMKALDLVSDPEYINLMKNKLDPEGLGIILLGPFLQEFFP
notes: MINDY3, human, EF-hand domain, residues 297-370; The limits 297-370 are stated for the crystallised construct; also called EF-hand domain of MINDY3; MINDY3 (297–370); source: E. coli (Rosetta2(DE3) for crystallisation), purified via GST tag and SEC
B1 was tested, and the Kd was 3.5 µM.
